In experiment [1] the target is GP73-hFc (human GP73 amino acids 63 to 400 fused at the C-terminus to human IgG1 Fc) (human). Nature of the experiment: sandwich EIA on GP73-hFc, coated 1A-3187, second antibody NC-Bt.
For experiment [2] the target is unchanged. Nature of the experiment: sandwich EIA on GP73-hFc, coated 1A-4246, second antibody NC-Bt.
Experiment [3] has the same target. Nature of the experiment: sandwich EIA on GP73-hFc, coated NC, second antibody 1B-3440-Bt.
Experiment [4] shares this target. Nature of the experiment: sandwich EIA on GP73-hFc, coated 1B-3440, second antibody NC-Bt.
Experiment [5] shares this target. Nature of the experiment: sandwich EIA on GP73-hFc, coated NC, second antibody 1A-4246-Bt.
Experiment [6] has the same target. Nature of the experiment: sandwich EIA on GP73-hFc, coated NC, second antibody NC-Bt.
For experiment [7] the target is unchanged. Nature of the experiment: sandwich EIA on GP73-hFc, coated NC, second antibody 1B-3246-Bt.
For experiment [8] the target is unchanged. Nature of the experiment: sandwich EIA on GP73-hFc, coated NC, second antibody 1B-4863-Bt.
For experiment [9] the target is unchanged. Nature of the experiment: sandwich EIA on GP73-hFc, coated 1B-3246, second antibody NC-Bt.
Experiment [10] shares this target. Nature of the experiment: sandwich EIA on GP73-hFc, coated NC, second antibody 1A-3187-Bt.
For experiment [11] the target is unchanged. Nature of the experiment: sandwich EIA on GP73-hFc, coated 1B-4971, second antibody NC-Bt.
The target is the same in experiment [12]. Nature of the experiment: sandwich EIA on GP73-hFc, coated NC, second antibody 1B-4971-Bt.
Experiment [13] shares this target. Nature of the experiment: sandwich EIA on GP73-hFc, coated 1B-4863, second antibody NC-Bt.

GP73-hFc (human GP73 amino acids 63 to 400 fused at the C-terminus to human IgG1 Fc) (human), sequence (chain, as listed by the source limits assumed): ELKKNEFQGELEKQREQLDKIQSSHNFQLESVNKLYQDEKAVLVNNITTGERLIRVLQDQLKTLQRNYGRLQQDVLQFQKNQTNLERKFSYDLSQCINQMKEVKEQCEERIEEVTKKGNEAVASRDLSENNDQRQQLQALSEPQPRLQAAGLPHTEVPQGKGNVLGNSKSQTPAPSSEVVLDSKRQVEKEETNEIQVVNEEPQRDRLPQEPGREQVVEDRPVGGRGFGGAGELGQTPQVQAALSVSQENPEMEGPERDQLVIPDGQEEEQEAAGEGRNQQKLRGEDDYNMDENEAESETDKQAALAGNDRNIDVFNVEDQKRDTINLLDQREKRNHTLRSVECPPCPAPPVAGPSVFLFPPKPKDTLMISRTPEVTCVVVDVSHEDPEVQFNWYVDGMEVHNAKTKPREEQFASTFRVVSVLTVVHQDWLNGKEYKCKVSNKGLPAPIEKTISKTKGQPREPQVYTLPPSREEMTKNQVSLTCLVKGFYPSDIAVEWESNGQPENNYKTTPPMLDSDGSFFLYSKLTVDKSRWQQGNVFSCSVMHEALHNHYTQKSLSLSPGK

For negative control monoclonal antibody, the sandwich assay signal (A492) in experiment [1] amounted to 0.06 A492; in experiment [2], 0.08 A492; in [3] it was 0.05 A492; in experiment [4], 3.07 A492; in experiment [5], 0.05 A492; in [6], 0.06 A492. The sandwich assay signal (A492) was found to be 0.05 A492 in experiment [7]; 0.05 A492 in experiment [8]; 0.06 A492 in experiment [9]; 0.09 A492 in experiment [10]; 0.06 A492 in experiment [11]; 0.06 A492 in experiment [12]. In experiment [13], this substance returned a sandwich assay signal (A492) of 0.06 A492.

(Values after US20140271651A1.)
